From article PMC8716364, “A Redox-Sensitive Cysteine Is Required for PIN1At Function” (Frontiers in Plant Science, 2021)

Key:
[1] = target: Cys69 (UniProt position 69, TRVSDCSSAKR); assay: chemical modification; conditions: 25 °C; sodium citrate or phosphate buffer (concentration not stated); reduced (DTT-treated and desalted), free enzyme, monomer
[2] = target: the molecule itself; assay: SEC-MALS; 76 μM (300 μg) reduced PIN1At incubated 30 min with 100 μM to 2.5 mM H2O2, 30 mM Tris-HCl pH 8.0, 200 mM NaCl, Superdex200 10/300; disulfide-bridged dimer
[3] = target: the molecule itself; assay: non-reducing SDS-PAGE after alkylation with mPEG-maleimide; 20 μM reduced PIN1At with 25- or 100-fold excess H2O2 (500 μM or 2 mM), 30 min, TE buffer; one sample then 10 mM DTT 30 min; free thiols alkylated with 2 kDa mPEG-maleimide, non-reducing 15% SDS-PAGE

How did the pKa [1] turn out when “PIN1At (PAR1), peptidyl-prolyl cis-trans isomerase Pin1, single-domain parvulin (Arabidopsis thaliana)” was run?
Its pKa is 4.9±0.1.

B1: Arabidopsis PIN1At, untagged recombinant protein (enzyme, Arabidopsis thaliana, UniProt Q9SL42 2-119, looked up)
chain: ASRDQVKASHILIKHQGSRRKASWKDPEGKIILTTTREAAVEQLKSIREDIVSGKANFEEVATRVSDCSSAKRGGDLGSFGRGQMQKPFEEATYALKVGDISDIVDTDSGVHIIKRTA
notes: Single cysteine, Cys69; the printed masses (12.3 kDa, 12,882.7 Da; theoretical 13,014.7 Da) fit the untagged protein; also called PAR1; PIN1At/PAR1; source: E. coli BL21 (DE3) with pSBET, pET12a, purified (ammonium sulfate, ACA44 gel filtration, DEAE-Sephacel)
B1 was tested. Which “stoichiometry N” value [2] did it give?
The value was 2.

B2: Arabidopsis PIN1At, N-terminal His-tagged recombinant protein (enzyme, Arabidopsis thaliana, UniProt Q9SL42 1-119, looked up)
chain: MASRDQVKASHILIKHQGSRRKASWKDPEGKIILTTTREAAVEQLKSIREDIVSGKANFEEVATRVSDCSSAKRGGDLGSFGRGQMQKPFEEATYALKVGDISDIVDTDSGVHIIKRTA
notes: also called His-tagged PIN1At; not shown: His6, N-terminal, kept
Does B2 bind [3]?
Result: binds
